A short description of the data set: yeast display, Sf9 membrane polyspecificity reagent, FACS + sequencing; frameworks hold sequencing errors. Put shortly: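 Galactose-induced (36–48 hours) yeast carrying a synthetic nanobody display library were exposed to 10% biotinylated, detergent-solubilized Sf9 membrane reagent at 4 °C for 1 hour. FACS followed streptavidin microbead enrichment, using low and high (top ~1%) gates for expression (anti-HA) and reagent binding (streptavidin). Colony PCR, MiSeq 2 × 250 sequencing and CDR-length filtering followed. Labels for polyreactivity reflect the gate of origin.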
Take “QVQLVESGRGLVQAGGSLRLSCAASGNTFNVNAMVWYRQEPGKERELVAAITRSGGITYYADSVKGRFTISRDNAKNTVYLQLNSMKPEDTAVYYCAVEGFGYAYYYFYEYDYWGQGTQVTVSS”: the “polyreactivity (PSR sort gate)” value was “high polyreactivity”. For “QVQLVESGRGLVQAGGSLRLSCAASGRIFKRYTMGWYRPAPGKETELVAGITFSGGSTYYADSVKGRFTISRDNAKNTVYLQMNSLKREDTAVYYCAADDAYYTYQYDYWGQGTQVTVSS” the value was “low polyreactivity”; for “QVQLVESGRGLVQAGGSLRLSCAASGRIFLANAMGWSRQAPGKERELVAAISLSGGRTYYADSVKGRFTISRDIAKNTVYLQMNSLKPEDTAFYYCAAEFYPIGYYGGYDYWGPGTQVTVSS”, “low polyreactivity”; for “QVQLVESGRGLVQAGGSLRLSCAASGRIFLYYAMGWYRQAPGKEREFVAAITYIGGSTYYADSVKGRFTISRDNAKNTVYLQMNSLKPEDTAVYWGQGTQVTVSS”, “low polyreactivity”. Regarding “QVQLVESGRGLVQAGGSLRLSCAASGRIFRVNAMGWYRQAPGKERELVAAISWGGGSTYYADSVKGRFTISRDNAKNTVYLQMNSLKPEDTAVYYCATTLVKSQSRYYYWGQGTQVTVSS”, the “polyreactivity (PSR sort gate)” value is on record as “high polyreactivity”.

Turning to “QVQLVESGRGLVQAGGSLRLSCAASGRIFRVNAMGWYRQAPGKERELVAAISWGGGSTYYADSVKGRFTISRDNAKNTVYLQMNSLKREDTAVYYCATTLVKSQSRYYYWGQGTQVTVSS”, the “polyreactivity (PSR sort gate)” value is “high polyreactivity”.

As for “QVQLVESGRGLVQAGGSLRLSCAASGRIFVYYAMGWYRQAPGKERELVATISSGGSTYYADSVKGRFTISRDNAKNTVYLQMNSLKPEDTAVYYCAADNVNRYLAYYYKGDYWGQGTQVTVSS”, the “polyreactivity (PSR sort gate)” value is “low polyreactivity”.

In the case of “QVQLVESGRGLVQAGGSLRLSCAASGRTFRAYAMGWYRQAPGKERELVAAISSRGGSTYYADSVKGRFTISRDNAKNTVYFQMNSLKPEDTAVYYCNVDRYVRGLITFDYWGQGTQVTVSS”, the “polyreactivity (PSR sort gate)” value is listed as “high polyreactivity”.

In the case of “QVQLVESGRGLVQAGGSLRLSCAASGRTFSYYVMGWYRQAPGKERELVAAISDSGGSTYYADSVKGRFTISRDNAKNTVYLQMNSLKPEDTAVYYCATDSYWYRLREYNYWGQGTQVTVSS”, the “polyreactivity (PSR sort gate)” value is “high polyreactivity”. For “QVQLVESGRGLVQAGGSLRLSCAASGRTIKYYAMGWYRQAPGKDRELVAVISWSGGSTYYADSVKGRFTISRDNAKNTVYLQMNSLKPEDTAVYYCNAYVYAYYAGYNYWGQGTQLTVSS” the value was “high polyreactivity”. The value for “QVQLVESGRGLVQAGGSLRLSCAASGRTLAFNAMGWYRQAPGKERELVAVIRNGTSTNYADSVKGRFTISRDNAKNTVYLQMNSLKPEDTAVYYCNVPYYLPSYLSGYDYWGQGTQVTVSS” was “low polyreactivity”; that for “QVQLVESGRGLVQAGGSLRLSCAASGSIFEQNVMGWYRQAPGKERELVAAITRGGSTNYADSVKGRFTISRDNAKNTVYLQMNSLKPEDTAVYYCSKRRWLGPSTLGYWGQGNQVTVSS” was “low polyreactivity”; that for “QVQLVESGRGLVQAGGSLRLSCAASGSIFSSYAMGWYRQAPGKERELVAAITWSGGRTYYADSVKGRFTISRDNAKNTVYLQMNSLKPEDTAVYYCNAVYLAYGGDYWGQGTQVTVSS” was “high polyreactivity”. The value for “QVQLVESGRGLVQAGGSLRLSCAASGSILRNYAMGWYRQAPGKERELVAAISKSGGTTYYADSVKGRFTISRDNAKNTVYLQMNSLKPEDTAVYYCAARPGYLYDYWGQGTQVTVSS” was “high polyreactivity”; that for “QVQLVESGRGLVQAGGSLRLSCAASGSILYSYAMGWYRQAPGKERELVAAISSSGGTNYAASVKGSFTISRDNAKNTVYLQMNSLKPEDTEVYYCNADVLDGGYDYWGQGTQVTVSS” was “low polyreactivity”.

As to “QVQLVESGRGLVQAGGSLRLSCAASGSTFGGYAMGWNRPAPGKERELVAAISIEGGSTYYAESVKGRFTISRDNAKNTVYLQMNSLKPEDTAVYYCNADEYYYGYNYWGQATQVTVSS”, the “polyreactivity (PSR sort gate)” value was “low polyreactivity”. With “QVQLVESGRGLVQAGGSLRLSCAASGSTFKRYVIGWYRQAPGKERELVAVINCSGGSTYADSVKGRYTISRDNAKNTVYLQMNSLKPEDTAVYYCAKYKYYRYWGQRTQVTVSS”, the “polyreactivity (PSR sort gate)” value was “high polyreactivity”.

For the sequence “QVQLVESGRGLVQAGGSLRLSCAASGSTINYKAMGWYRQAPGKERELVAAIDSGVSTNYADSVKGLFTISRDHAKNTVYLQMNSLKPEDTAVYYCNADPDYFDYWGQGTQVTVSS”, the “polyreactivity (PSR sort gate)” value is recorded as “low polyreactivity”. In the case of “QVQLVESGRGLVQAGGSLRLSCAASGSTLGVNAMGWYRQAPGKERELVAAISRSGTSTYYADSVKGRFTISRDNAKNTVYLQMNSLKPEDTAVYYCAAQYVIFGSRSRQFIEYEYWGQGTQVTVSS”, the “polyreactivity (PSR sort gate)” value was “high polyreactivity”. With “QVQLVESGRGLVQAGGSLRLSCAASGTYGYYAMGWYRQAPGKQRELVAAISGSGGSTYYADSVKGRFTISRDNAKNTVYLQMNSLKPEDTAVYYCAKRRRYGGRWVSGDYWGQGTQVTVSS”, the “polyreactivity (PSR sort gate)” value is listed as “high polyreactivity”.

As for “QVQLVESGRGLVQAGGSLRLSGAASGITQDDYDMGWSRQAPGKQRELVAAITSGGSTNYAHSVKGRFTNSRDNATNTVYLQMNSLKPEDTAVYYCAADTARTRIFDYWGQGTQVTVSS”, the “polyreactivity (PSR sort gate)” value was “low polyreactivity”. The value for “QVQLVESGRGLVQAGGSLRLSSAASGSISLFLTMGWYRQAPGKERELVAAINYTDITKYADSVKGRFTISRDNAKNTVYLQMKSLKPDDTAVYYCARDEGYEYPLGRGGYWGQGTQVTVSS” was “low polyreactivity”. The value for “QVQLVESGRGLVQAGGTLRLSCAASGFIFATNTMGWYRQAPGKERELVAASSTYYADSVKGRFTISRDNAKNTVYLQMNSLKPEDTAVYYCNADRDSYIGFVDWAGEYWGQGTQVTVSS” was “low polyreactivity”.

Turning to “QVQLVESGRGLVQAGVSLRLSCAASGSIFDPNAMGWYRQAPGKERELVAAITSGGGSTYYADSVKGRFTISRDNAKNTVYLQMNSLKPEDTAVYYCNKVFVLQYKFVAWFDYWGQGTQVTVSS”, the “polyreactivity (PSR sort gate)” value was “low polyreactivity”. As to “QVQLVESGRGLVQEGGSLRLSCAPSGSTFTSYAMGWSRQAPGKERELVAAINYSGGSTNYADSVKGRFTLSRDNAMNTVYLQMNSLKPEDTAVYYFNVVRRSPGDYSYYYWGQGTQVTVSS”, the “polyreactivity (PSR sort gate)” value is reported as “low polyreactivity”.

As to “QVQLVESGVCLVQAGGSLLLSCAASRRIFRNAMGWYRHAPGKERELVAAISSGGTTNYADSVKGRFTISRDNAKNTVYLLMNSLKPEDTAVYYCAAAPSSYRYRYVVFTFGYWGQGTQVTVSS”, the “polyreactivity (PSR sort gate)” value is given as “high polyreactivity”. The value for “QVQLVESGVCLVQAGRSLPLSCAASGFTFDSNAMGWSRQAPGNESELVAAISASRDSTYYADSVKGRFTISRDNAKNTVYLQMNSLKPEETAVYYCAADSSDWPYDYWGQCTQVTVSS” was “low polyreactivity”. For “QVQLVESGVGFVQAGASLRLSSAASGSIFRINAMGWYRQAPGKVRELVAAITRSGGSTFYADSVKGRFTMSRDYAKNTVYFQMHSLTPEDTAVYFCAAVWYYSTVPARYEYWGQGTQVTVSS” the value was “low polyreactivity”; for “QVQLVESGVGIVQAGGSLRISCAASGTNFLFYAMGWYRQAPGKERELVATISRGGSTYYADSVKGRFTISRDNAKNTVYFQMKSLKPEDTAVYYCAARATRVTIAPRYGYWGQGTQVTVSS”, “low polyreactivity”; for “QVQLVESGVGIVQAGGSLRLSCAASGSIFKTNAMGWYRHAPGNERELVAAITGSGGSTYYADSVKGRFTISRDNAKNNVYLQMMSLKPEDTAVYYCAKRSYRPILRWSYDYWGQGTQVTVSS”, “low polyreactivity”.

For the sequence “QVQLVESGVGLLQAGGILRISCASSGITFAWYAMVRYRQAPGKERELVAAIDDRGGSTYYADSVKGRFTISRDNAKNTVYFQMNSLKPEDTAVFYCNADTPSYEPYRLDYWGHGTQVTVSS”, the “polyreactivity (PSR sort gate)” value was “low polyreactivity”.

“QVQLVESGVGLLQAGGSLRLSCAAYGYTMGLYRQAPGKEREFVAAINQTGGSTSADSVKGRFTISRDNANNTVYLQLNSLKPEDTAVYYCAADISVYSDSHDVSINYRYDYWGLGTQVTVSS”: the “polyreactivity (PSR sort gate)” value was “low polyreactivity”. For “QVQLVESGVGLVPAGGSLRLSCAASGSTFSANAMGWYRQAPGKERELVAAITYRGANTYYADSVKGRFTISRDNAKNTVYLQLNSLKPEDTAVYYCAAEYAYHHVGFGYWGQGTQVTVSS” the value was “low polyreactivity”. Consider “QVQLVESGVGLVQAGGILRLSCAASGSIFAVNAMGWYRQAPGKERELFAAISKRGGSTYYADSVKGRFTISRDNAKNTVYLQMNSLKPEDTAVYYCAARILVTYHRDYYYWGLGTQVTVSS”, for which the “polyreactivity (PSR sort gate)” value is given as “high polyreactivity”. For “QVQLVESGVGLVQAGGRLRLSCAASGSTFLRYAMGWYRPAPGKERELVAAISYSGGSTYYADSVKGRFTISRDNAKNTVYLQMNSLKPEDTAVYYCNAGVFANDNGGRRDQFTWEYEYWGQGTQVTVSS” the value was “low polyreactivity”.

“QVQLVESGVGLVQAGGSHRLSCAASGPTFRYNTMGWYRQAPGKERELVASISSGDRTDYADSVKGRFTISRDNAKYTVYLQMNSLKPEDTAVYYCNNKWYSIYYYWGQGTQVTVSS”: the “polyreactivity (PSR sort gate)” value was “high polyreactivity”.

“QVQLVESGVGLVQAGGSLRISCAASGFIFDWNAMGWYRQAPGKERELVAAISSGGSTHYADSVKGRFTISRDNAKNTVYLQMNSLKPEDTAVYYCAARFPQWRYSRRTGERFDYWGQGTQVTVSS”: the “polyreactivity (PSR sort gate)” value is recorded as “low polyreactivity”.

In the case of “QVQLVESGVGLVQAGGSLRISCAASGFIFVTNVMGWYRQAPGKEREFVAAITARGGTTYYADSVKGRFTISRDNAKNTVYLQMNRLKPEDTAVYYCAAGYGVIKSLSHFYYWGQGTQVTVSS”, the “polyreactivity (PSR sort gate)” value was “low polyreactivity”. As for “QVQLVESGVGLVQAGGSLRISCAASGRILGYYAMGWYRQAPGKEREMVAGISYSAGRTYYADSVKGRFTISRDNAKNTVYLQMNSLKPEDTAVYYCAKALVRSGSTRGTTGYYYWGQGTQVTVSS”, the “polyreactivity (PSR sort gate)” value is “high polyreactivity”. For “QVQLVESGVGLVQAGGSLRISCAASGSTFAAKSMGWYRQAPGKEREWVAVIRRGGSTTYADSVKGRFTISRDNAKNTVYLQMNSLKPEATAVYYCAASLYGKGDYWGQGTQVTVSS”, the “polyreactivity (PSR sort gate)” value is “high polyreactivity”. Take “QVQLVESGVGLVQAGGSLRLICAASGFILGQNAMGWYRQAPGKEREFVADISWSGDSTYYADSVKGRFTISRDNAKNTVYFQMNSLKPEDTAVYYCAADPYYNWGYYYWGQGTQVTVSS”: the “polyreactivity (PSR sort gate)” value is “low polyreactivity”.

The values above are taken from the nanobody polyreactivity screen of Harvey et al. (2022).
